Data: the RNAGym collection of RNA variant scans (doi:10.7554/elife.80360)

B1: Hairpin Ribozyme (parent)
chain: GUCCUCUUUCACGUGCGCGUGAAAGAGAGAAGUGAACCAGAGAAACACACGUUGUGGUAUAUUACCUGGUA

Variants of: B1
Assay: self-cleavage, relative activity (ratio to wild type); higher = more cleavage; co-transcriptional

| Variant | self-cleavage |
| --- | --- |
| GUCCUCUUUCACGUGUGCGUGAAAGAGAGAAGUGAACCAGAGAAACACUCGUUGUGGUAUAUUACCUGGUA [C16U A49U] | 0.281 |
| GUCCUCUUUCACGUGUGCGUGAAAGAGAGAAGUGAACCAGAGAAACACACGGUGUGGUAUAUUACCUGGUA [C16U U52G] | 0.761 |
| GUCCUCUUUCACGUGCACGUGAAAGAGAGAAGUGAACCAGAGAAACACACGUUGUGGUAUAUUCCCUGGUA [G17A A64C] | 0.143 |
| GUCCUCUUUCACGUGCAAGUGAAAGAGAGAAGUGAACCAGAGAAACACACGUUGUGGUAUAUUACCUGGUA [G17A C18A] | 1.2 |
| GUCCUCUUUCACGUGUGCGUGAAAGAGAGAAGUGAACCAGAGAAACACACGUUGUGGUACAUUACCUGGUA [C16U U60C] | 1.26 |
| GUCCUCUUUCACGUGGGCGUGAAAGAGAGAAGUGAACCAGAGAAACACACGUUGCGGUAUAUUACCUGGUA [C16G U55C] | 0.239 |
| GUCCUCUUUCACGUGUGCGGGAAAGAGAGAAGUGAACCAGAGAAACACACGUUGUGGUAUAUUACCUGGUA [C16U U20G] | 1.01 |
| GUCCUCUUUCACGUGUGCGUGAAAGAGAGAAGUGAACCAGAGAAACACACGUUGUGGUAUAUUUCCUGGUA [C16U A64U] | 0.162 |
| GUCCUCUUUCACGUGUGCGUGAAAGAGAGAAGUGAACCAGAGAAACACACGUUGUGGUAUCUUACCUGGUA [C16U A61C] | 0.254 |
| GUCCUCUUUCACGUGUGCGUGAAAGAGAGAAGUGUACCAGAGAAACACACGUUGUGGUAUAUUACCUGGUA [C16U A35U] | 0.916 |
| GUCCUCUUUCACGUGCACGUGAAAGAGAGAAGUGCACCAGAGAAACACACGUUGUGGUAUAUUACCUGGUA [G17A A35C] | 0.945 |
| GUCCUCUUUCACGUGCACGUGAAAGAGAGAAGUGGACCAGAGAAACACACGUUGUGGUAUAUUACCUGGUA [G17A A35G] | 1.2 |
| GUCCUCUUUCACGUGUGCGUGAAAGAGAGAAGUGAACCUGAGAAACACACGUUGUGGUAUAUUACCUGGUA [C16U A39U] | 0.312 |
| GUCCUCUUUCACGUGUGCGUGAAAGAGAGAAGUGAACCCGAGAAACACACGUUGUGGUAUAUUACCUGGUA [C16U A39C] | 0.641 |
| GUCCUCUUUCACGUGUGCGUGAAAGAGAGCAGUGAACCAGAGAAACACACGUUGUGGUAUAUUACCUGGUA [C16U A30C] | 0.0996 |
| GUCCUCUUUCACGUGUGCGUGAAAGAGAGAAGUGAACCAGAGAAACACACGUUGUGGUAUAUUACCUGGGA [C16U U70G] | 0.722 |
| GUCCUCUUUCACGUGGGCGUGAAAGAGAGAAGUGAACCAGAGAAACACACGUUGUGGUAUAUCACCUGGUA [C16G U63C] | 0.204 |
| GUCCUCUUUCACGUGUGCGUGAAAGAGAGAUGUGAACCAGAGAAACACACGUUGUGGUAUAUUACCUGGUA [C16U A31U] | 0.211 |
| GUCCUCUUUCACGUGUGCGUGAAAGAGAGAGGUGAACCAGAGAAACACACGUUGUGGUAUAUUACCUGGUA [C16U A31G] | 0.742 |
| GUCCUCUUUCACGUGUGCGUGAAAGAGAGAAGUGAACCAGAGAAUCACACGUUGUGGUAUAUUACCUGGUA [C16U A45U] | 0.128 |
| GUCCUCUUUCACGUGUGCGUGAAAGAGAGAAGUGAACCAGAGAAGCACACGUUGUGGUAUAUUACCUGGUA [C16U A45G] | 0.135 |
| GUCCUCUUUCACGUGUGCGUGAAAGCGAGAAGUGAACCAGAGAAACACACGUUGUGGUAUAUUACCUGGUA [C16U A26C] | 0.839 |
| GUCCUCUUUCACGUGUGCGUGAAAGAGAGAAGUGAACCAGAGAAACACACGUUGUGGUAUAUUACCUAGUA [C16U G68A] | 0.283 |
| GUCCUCUUUCACGUGCACGUGAAAGUGAGAAGUGAACCAGAGAAACACACGUUGUGGUAUAUUACCUGGUA [G17A A26U] | 0.768 |
| GUCCUCUUUCACGUGUACGUGAAAGAGAGAAGUGAACCAGAGAAACACACGUUGUGGUAUAUUACCUGGUA [C16U G17A] | 1.19 |
| GUCCUCUUUCACGUGUGCGUGAAAAAGAGAAGUGAACCAGAGAAACACACGUUGUGGUAUAUUACCUGGUA [C16U G25A] | 0.668 |

| Variant | self-cleavage |
| --- | --- |
| GUCCUCUUUCACGUGUGCGUGACAGAGAGAAGUGAACCAGAGAAACACACGUUGUGGUAUAUUACCUGGUA [C16U A23C] | 1.03 |
| GUCCUCUUUCACGUGUGCGUGAUAGAGAGAAGUGAACCAGAGAAACACACGUUGUGGUAUAUUACCUGGUA [C16U A23U] | 0.992 |
| GUCCUCUUUCACGUGGGCGUGAAAGAGAGAAGUGAACCAGAGAAACACACGUUGUGGCAUAUUACCUGGUA [C16G U58C] | 1.06 |
| GUCCUCUUUCACGUGCACGUGAAAGAGAGAAGUGAACCAGAGAAACACACGUUGUGGUAUGUUACCUGGUA [G17A A61G] | 0.107 |
| GUCCUCUUUCACGUGCACGUGAAAGAGAGCAGUGAACCAGAGAAACACACGUUGUGGUAUAUUACCUGGUA [G17A A30C] | 0.231 |
| GUCCUCUUUCACGUGGGCGUGAAAGAGAGAAGUGAACCAGAGAAACACACGUUGUGGUAAAUUACCUGGUA [C16G U60A] | 0.62 |
| GUCCUCUUUCACGUGGGCGUGAAAGAGAGAAGUGAACCAGAGAAACACACGUUGUGGUACAUUACCUGGUA [C16G U60C] | 1.06 |
| GUCCUCUUUCACGUGUGCGUGAAAGAGAGAAGUGAACCAGAGAAACACACGUUGUGGUAUAUUACCUGCUA [C16U G69C] | 0.396 |
| GUCCUCUUUCACGUGUGCGUGAAAGAGAGAAGUGAACCAGAGAAACACACGUUGUGGUCUAUUACCUGGUA [C16U A59C] | 0.17 |
| GUCCUCUUUCACGUGUGCGUGAAAGAGAGAAGUGAACCAGAGAAACACACGUUGUGGUGUAUUACCUGGUA [C16U A59G] | 0.109 |
| GUCCUCUUUCACGUGUGCGUGAAAGAGAGAAGUGAACCAGAGAAACGCACGUUGUGGUAUAUUACCUGGUA [C16U A47G] | 0.16 |
| GUCCUCUUUCACGUGUGCGUGAAAGAGAGAAGUGAACCAGAGAAACCCACGUUGUGGUAUAUUACCUGGUA [C16U A47C] | 0.567 |
| GUCCUCUUUCACGUGUGCCUGAAAGAGAGAAGUGAACCAGAGAAACACACGUUGUGGUAUAUUACCUGGUA [C16U G19C] | 0.867 |
| GUCCUCUUUCACGUGUGCGUGAAAGAGGGAAGUGAACCAGAGAAACACACGUUGUGGUAUAUUACCUGGUA [C16U A28G] | 1.32 |
| GUCCUCUUUCACGUGUGCGUGAAAGAGUGAAGUGAACCAGAGAAACACACGUUGUGGUAUAUUACCUGGUA [C16U A28U] | 0.723 |
| GUCCUCUUUCACGUGGGCGUGAAAGAGAGAAGUGAACCAGAGAAACACACGUUGUGGUAUAGUACCUGGUA [C16G U62G] | 0.181 |
| GUCCUCUUUCACGUGGGCGUGAAAGAGAGAAGUGAACCAGAGAAACACACGUUGUGGUAUAAUACCUGGUA [C16G U62A] | 0.168 |
| GUCCUCUUUCACGUGUGCGUGAAAGAGAGAAGUGAACCAGAGAAACACACGUUGUGGUAUAGUACCUGGUA [C16U U62G] | 0.107 |
| GUCCUCUUUCACGUGUGCGUGAAAGAGAGAAGUGAACCAGAGAAACACACGUUGUGGUAUACUACCUGGUA [C16U U62C] | 0.384 |
| GUCCUCUUUCACGUGUGCGUGAAAGAGAGAAGUGAACCAGAGAAACACACGUUGUGAUAUAUUACCUGGUA [C16U G57A] | 0.272 |
| GUCCUCUUUCACGUGUGCGUGAAAGAGAGAAGUGAACCACAGAAACACACGUUGUGGUAUAUUACCUGGUA [C16U G40C] | 0.11 |
| GUCCUCUUUCACGUGUGCGUGAAAGAGAGAAGUGAACCAAAGAAACACACGUUGUGGUAUAUUACCUGGUA [C16U G40A] | 0.276 |
| GUCCUCUUUCACGUGUGCGUGAAAGAGAGAAGUGAACCAGAGAAACAUACGUUGUGGUAUAUUACCUGGUA [C16U C48U] | 0.179 |
| GUCCUCUUUCACGUGUGCGUGAAAGAGAGAAGUGAACCAGAGAAACAGACGUUGUGGUAUAUUACCUGGUA [C16U C48G] | 0.108 |
| GUCCUCUUUCACGUGCACGUGAAAGAGAGAAGUGAACCUGAGAAACACACGUUGUGGUAUAUUACCUGGUA [G17A A39U] | 0.44 |
| GUCCUCUUUCACGUGCACGUGAAAGAGAGAGGUGAACCAGAGAAACACACGUUGUGGUAUAUUACCUGGUA [G17A A31G] | 0.694 |

| Variant | self-cleavage |
| --- | --- |
| GUCCUCUUUCACGUGCACGUGAAAGAGAGAUGUGAACCAGAGAAACACACGUUGUGGUAUAUUACCUGGUA [G17A A31U] | 0.105 |
| GUCCUCUUUCACGUGCACGUGAAAGAGAGAAGUGAACCAGAGACACACACGUUGUGGUAUAUUACCUGGUA [G17A A44C] | 0.119 |
| GUCCUCUUUCACGUGCACGUGAAAGAGAGAAGUGAACCAGAGAGACACACGUUGUGGUAUAUUACCUGGUA [G17A A44G] | 0.233 |
| GUCCUCUUUCACGUGCACGUGAAAGAGAGAAGUGAACCAGAGGAACACACGUUGUGGUAUAUUACCUGGUA [G17A A43G] | 0.0835 |
| GUCCUCUUUCACGUGUGCGUGAAAGAGAGAAGUGAACCAGAGAAACACACGUUGUGGUAUAUUACCUGGUC [C16U A71C] | 1.41 |
| GUCCUCUUUCACGUGUGCGUGAAAGAGAGAAGUGAACCAGAGGAACACACGUUGUGGUAUAUUACCUGGUA [C16U A43G] | 0.0631 |
| GUCCUCUUUCACGUGUGCGUGAAAGAGAGAAGUGAACCAGAGUAACACACGUUGUGGUAUAUUACCUGGUA [C16U A43U] | 0.134 |
| GUCCUCUUUCACGUGUGCGUGAAAGAGAGAAGUGAACCAGAGAAACACACGUUGUAGUAUAUUACCUGGUA [C16U G56A] | 0.208 |
| GUCCUCUUUCACGUGUGCGUGAAAGACAGAAGUGAACCAGAGAAACACACGUUGUGGUAUAUUACCUGGUA [C16U G27C] | 0.202 |
| GUCCUCUUUCACGUGUGCGUGAAAGAGAGAAGUGAACCAGAGAAACACACAUUGUGGUAUAUUACCUGGUA [C16U G51A] | 1.06 |
| GUCCUCUUUCACGUGUGCGUGUAAGAGAGAAGUGAACCAGAGAAACACACGUUGUGGUAUAUUACCUGGUA [C16U A22U] | 0.972 |
| GUCCUCUUUCACGUGUGCGUGGAAGAGAGAAGUGAACCAGAGAAACACACGUUGUGGUAUAUUACCUGGUA [C16U A22G] | 1 |
| GUCCUCUUUCACGUGCACGUGACAGAGAGAAGUGAACCAGAGAAACACACGUUGUGGUAUAUUACCUGGUA [G17A A23C] | 0.987 |
| GUCCUCUUUCACGUGCACGUGAUAGAGAGAAGUGAACCAGAGAAACACACGUUGUGGUAUAUUACCUGGUA [G17A A23U] | 0.892 |
| GUCCUCUUUCACGUGGGCGUGAAAGAGAGAAGUGAACCAGAGAAACACACGUUGUGGUAUAUUACCUGGGA [C16G U70G] | 0.508 |
| GUCCUCUUUCACGUGCACGUGUAAGAGAGAAGUGAACCAGAGAAACACACGUUGUGGUAUAUUACCUGGUA [G17A A22U] | 0.892 |
| GUCCUCUUUCACGUGCACGUGGAAGAGAGAAGUGAACCAGAGAAACACACGUUGUGGUAUAUUACCUGGUA [G17A A22G] | 1.12 |
| GUCCUCUUUCACGUGCACGUGCAAGAGAGAAGUGAACCAGAGAAACACACGUUGUGGUAUAUUACCUGGUA [G17A A22C] | 0.866 |
| GUCCUCUUUCACGUGCACGUGAAAGAGAGAAGUGAACCAGAGAAACAUACGUUGUGGUAUAUUACCUGGUA [G17A C48U] | 0.176 |
| GUCCUCUUUCACGUGCACGUGAAAGAGAGAAGUGAAUCAGAGAAACACACGUUGUGGUAUAUUACCUGGUA [G17A C37U] | 0.463 |
| GUCCUCUUUCACGUGUGCGUGAAAGAGACAAGUGAACCAGAGAAACACACGUUGUGGUAUAUUACCUGGUA [C16U G29C] | 0.1 |
| GUCCUCUUUCACGUGUGCGUGAAAGAGAGAAGUGAACUAGAGAAACACACGUUGUGGUAUAUUACCUGGUA [C16U C38U] | 0.443 |
| GUCCUCUUUCACGUGUGCGUGAAAGAGAGAAGUGAACGAGAGAAACACACGUUGUGGUAUAUUACCUGGUA [C16U C38G] | 0.206 |
| GUCCUCUUUCACGUGUGCGUGAAAGAGAGAAGUGAACCAGAGAAACACACGUUGUGGUAUAUUACCAGGUA [C16U U67A] | 0.325 |
